From patent US20240402174A1 (Takeda / Millennium, published 2024)

Columns and labels:
Test in all cases: multiplex microsphere immunoassay
GI.4 VLP = biological target: T1, GI.4 VLP (norovirus Hu/GI.4/1643/2008/US)
T1 construct: also called GI.4 US
T1 chain: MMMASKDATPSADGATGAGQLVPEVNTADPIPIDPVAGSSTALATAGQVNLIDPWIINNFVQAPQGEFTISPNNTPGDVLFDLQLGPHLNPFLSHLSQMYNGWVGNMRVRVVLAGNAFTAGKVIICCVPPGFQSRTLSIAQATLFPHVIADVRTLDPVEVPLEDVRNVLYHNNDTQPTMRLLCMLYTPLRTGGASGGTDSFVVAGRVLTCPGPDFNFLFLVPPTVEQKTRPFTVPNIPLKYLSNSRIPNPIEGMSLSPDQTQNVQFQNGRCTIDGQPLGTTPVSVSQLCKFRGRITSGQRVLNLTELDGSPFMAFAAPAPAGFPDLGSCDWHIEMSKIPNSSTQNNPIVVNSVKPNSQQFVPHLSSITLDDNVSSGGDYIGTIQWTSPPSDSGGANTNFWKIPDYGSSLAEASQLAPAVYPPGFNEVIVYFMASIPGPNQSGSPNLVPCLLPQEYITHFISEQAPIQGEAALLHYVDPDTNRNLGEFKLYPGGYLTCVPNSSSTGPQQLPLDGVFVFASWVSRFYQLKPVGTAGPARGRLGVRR

GI.3 VLP = biological target: T2, GI.3 VLP (norovirus Hu/GI.3/JKPG_883/SWE/2007)
T2 construct: also called GI.3 Sweden
T2 chain: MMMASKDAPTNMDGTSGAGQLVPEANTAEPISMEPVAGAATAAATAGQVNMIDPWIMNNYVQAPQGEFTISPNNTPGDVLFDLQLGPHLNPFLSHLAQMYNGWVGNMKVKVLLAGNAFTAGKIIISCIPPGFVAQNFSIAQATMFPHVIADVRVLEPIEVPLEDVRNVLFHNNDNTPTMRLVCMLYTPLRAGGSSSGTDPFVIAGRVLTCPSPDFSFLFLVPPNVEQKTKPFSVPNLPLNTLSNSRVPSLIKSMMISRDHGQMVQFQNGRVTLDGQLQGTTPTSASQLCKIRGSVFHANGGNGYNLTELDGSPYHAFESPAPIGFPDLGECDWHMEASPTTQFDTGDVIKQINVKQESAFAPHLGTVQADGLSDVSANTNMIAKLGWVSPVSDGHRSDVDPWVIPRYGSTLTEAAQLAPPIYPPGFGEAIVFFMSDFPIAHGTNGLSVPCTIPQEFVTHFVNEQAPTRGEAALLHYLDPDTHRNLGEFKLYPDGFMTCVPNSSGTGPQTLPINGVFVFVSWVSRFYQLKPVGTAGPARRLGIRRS

GI.6 VLP = biological target: T3, GI.6 VLP (norovirus Hu/GI.6/TCH-099/USA/2003)
T3 construct: also called GI.6 USA
T3 chain: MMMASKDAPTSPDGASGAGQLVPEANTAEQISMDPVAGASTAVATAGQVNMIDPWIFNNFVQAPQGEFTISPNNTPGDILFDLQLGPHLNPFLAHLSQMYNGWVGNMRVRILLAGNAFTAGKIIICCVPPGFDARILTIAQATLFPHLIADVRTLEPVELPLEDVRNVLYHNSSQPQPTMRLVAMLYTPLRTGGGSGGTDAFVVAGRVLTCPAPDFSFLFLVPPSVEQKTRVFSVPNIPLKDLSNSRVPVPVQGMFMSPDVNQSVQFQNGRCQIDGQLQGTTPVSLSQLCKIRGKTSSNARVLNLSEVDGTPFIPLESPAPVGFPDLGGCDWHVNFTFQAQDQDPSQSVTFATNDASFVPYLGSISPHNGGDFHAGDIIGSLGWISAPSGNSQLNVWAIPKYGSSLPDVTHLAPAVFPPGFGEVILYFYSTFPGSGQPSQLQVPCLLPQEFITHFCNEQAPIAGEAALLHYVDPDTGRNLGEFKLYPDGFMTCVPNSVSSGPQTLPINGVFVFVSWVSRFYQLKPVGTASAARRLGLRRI

GI.2 VLP = biological target: T4, GI.2 VLP (norovirus Hu/GI.2/Jingzhou/2013401/CHN, UniProt Q04542 1-546)
T4 construct: also called GI.2 Jingzhou
T4 chain: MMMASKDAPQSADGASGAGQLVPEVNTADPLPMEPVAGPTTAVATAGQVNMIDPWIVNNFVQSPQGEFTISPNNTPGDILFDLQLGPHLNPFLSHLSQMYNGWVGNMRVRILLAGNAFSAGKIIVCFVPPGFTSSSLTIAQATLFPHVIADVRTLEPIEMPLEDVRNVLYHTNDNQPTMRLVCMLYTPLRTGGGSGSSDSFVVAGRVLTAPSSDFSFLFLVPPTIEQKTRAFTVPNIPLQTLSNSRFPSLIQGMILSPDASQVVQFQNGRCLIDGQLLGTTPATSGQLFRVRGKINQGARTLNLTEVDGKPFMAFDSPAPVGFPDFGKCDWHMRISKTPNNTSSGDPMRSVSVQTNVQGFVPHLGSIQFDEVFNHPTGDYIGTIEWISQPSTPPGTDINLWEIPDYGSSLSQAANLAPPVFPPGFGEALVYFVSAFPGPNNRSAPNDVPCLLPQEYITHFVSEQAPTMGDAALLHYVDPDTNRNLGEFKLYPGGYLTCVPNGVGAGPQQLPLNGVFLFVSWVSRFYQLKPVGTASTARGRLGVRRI

GI.7 VLP = biological target: T5, GI.7 VLP (norovirus Hu/GI.7/Providence191/2010/USA)
T5 construct: also called GI.7 Providence
T5 chain: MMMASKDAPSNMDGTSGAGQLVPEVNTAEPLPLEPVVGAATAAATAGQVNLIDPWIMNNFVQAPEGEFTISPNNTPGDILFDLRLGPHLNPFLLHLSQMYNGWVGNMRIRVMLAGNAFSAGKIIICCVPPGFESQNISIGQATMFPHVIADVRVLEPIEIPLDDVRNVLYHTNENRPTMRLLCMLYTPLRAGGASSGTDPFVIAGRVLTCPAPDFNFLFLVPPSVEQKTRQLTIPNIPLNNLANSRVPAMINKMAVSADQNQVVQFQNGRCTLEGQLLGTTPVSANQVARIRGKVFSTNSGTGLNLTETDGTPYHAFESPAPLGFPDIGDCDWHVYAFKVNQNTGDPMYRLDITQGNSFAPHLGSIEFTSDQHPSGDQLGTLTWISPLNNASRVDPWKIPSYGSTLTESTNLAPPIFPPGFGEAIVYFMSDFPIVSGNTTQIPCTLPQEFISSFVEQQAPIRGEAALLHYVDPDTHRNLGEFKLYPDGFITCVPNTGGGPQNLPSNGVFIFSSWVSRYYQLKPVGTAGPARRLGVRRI

GI.5 VLP = biological target: T6, GI.5 VLP (norovirus …)
T6 construct: also called GI.5 Siklos
T6 chain: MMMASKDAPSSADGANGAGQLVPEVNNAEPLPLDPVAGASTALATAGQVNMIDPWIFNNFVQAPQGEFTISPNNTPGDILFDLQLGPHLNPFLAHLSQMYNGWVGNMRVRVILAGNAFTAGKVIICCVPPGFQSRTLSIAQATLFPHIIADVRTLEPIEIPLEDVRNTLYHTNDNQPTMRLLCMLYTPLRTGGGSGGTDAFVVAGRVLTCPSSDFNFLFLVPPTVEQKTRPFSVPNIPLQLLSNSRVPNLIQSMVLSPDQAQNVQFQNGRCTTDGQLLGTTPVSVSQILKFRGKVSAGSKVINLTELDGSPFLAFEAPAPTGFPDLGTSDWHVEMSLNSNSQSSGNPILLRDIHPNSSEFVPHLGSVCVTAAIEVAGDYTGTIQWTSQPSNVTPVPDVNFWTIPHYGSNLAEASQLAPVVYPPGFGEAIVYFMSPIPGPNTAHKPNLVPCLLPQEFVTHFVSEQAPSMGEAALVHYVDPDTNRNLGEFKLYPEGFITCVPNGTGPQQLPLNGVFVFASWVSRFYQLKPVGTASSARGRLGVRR

B1: human mAb 1227 (antibody, V domains shown)
VH: QVQLVQSGGGMVQPGGSLSLSCAASGFTLSNYAMTWVRQAPGKGLEWVSSIGGSGGTTYYADSVKGRFTISRDSSMNTLYLQMSNLRAGDTAVYYCAKDKTRTLRLGYSGMDVWGQGTTVTVSS
VL: DIRLTQSPSSLSASVGDRVTITCRASQSISSYLNWYQQKPGKAPDLLIYGASSLQSGVPSRFSGSGSGTDFTLTISSLQPEDFGNYYCQQSFSTPRTFGQGTKVEL
notes: also called A1227
EC50 (GI.4 VLP): 2 ng/mL
EC50 (GI.3 VLP): 2 ng/mL
EC50 (GI.6 VLP): 2 ng/mL
EC50 (GI.2 VLP): 2 ng/mL
EC50 (GI.7 VLP): 21 ng/mL
EC50 (GI.5 VLP): 1 ng/mL
